Consider 40 sequences from the nanobody polyreactivity screen of Harvey et al. (2022).

The nature of this data set: yeast display, Sf9 membrane polyspecificity reagent, FACS + sequencing; frameworks hold sequencing errors. Summed up:
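Nanobodies from a synthetic yeast display library (Saccharomyces cerevisiae BJ5465), induced 36–48 hours with galactose, were stained 1 hour at 4 °C with 10% biotinylated, detergent-solubilized Sf9 membrane reagent, enriched on streptavidin microbeads, then FACS-sorted. Anti-HA (expression) and streptavidin (reagent binding) fluorescence set low and high (top ~1%) gates. Polyreactivity labels come from the gate of origin. Genes were colony-PCR amplified, MiSeq 2 × 250 sequenced and filtered by CDR length.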
For the sequence “QVQLVESGGGLVQAGGSLRLSCAASGSTFGYYAMGWYRQAPGKEREVVAALDSSGDTYYADSVKGRFTISRDNAKNTVYFQMNSLKPEDTAVYYCAADFWVSSYWGYGYWGQGTQVTVSS”, the “polyreactivity (PSR sort gate)” value was “high polyreactivity”.

Take “QVQLVESGGGLVQAGGSLRLSCAASGSTFGYYAMGWYRQAPGKESELVATINWSGGSTYYADSVKGRFTISRDNAKNTVYLQMNSLKPEDTAVYYCAADPYLQYYWAYDYWGQGTQVTVSS”: the “polyreactivity (PSR sort gate)” value is given as “low polyreactivity”.

On to “QVQLVESGGGLVQAGGSLRLSCAASGSTFGYYAMGWYRQATGKERELVAAISSGGSTSYADSVKGRFTISRDNAKNTVYLQMNSLKPEDTAVYYCNTSYRKKKRYYYWGQGTQVTVSS”, for which the “polyreactivity (PSR sort gate)” value is given as “high polyreactivity”.

As for “QVQLVESGGGLVQAGGSLRLSCAASGSTFGYYAMGWYRQEPGKERELVAAISRGSSTYYADSVKGRFTISRDNAKNTVYLQMNSLKPEDTAVYYCAAKRYAYGSLDYWGQGTQVTVSS”, the “polyreactivity (PSR sort gate)” value was “high polyreactivity”.

With “QVQLVESGGGLVQAGGSLRLSCAASGSTFGYYAMRWYRQAPGKERELVAAIRSSGGGTYYADSVKGRFTISRDNAKNTVYLQMNSLKPEDTAVYYCATDAPILVNAEYDEWLEYDYWGQGTQVTVSS”, the “polyreactivity (PSR sort gate)” value is given as “low polyreactivity”.

For the sequence “QVQLVESGGGLVQAGGSLRLSCAASGSTFGYYGMGWYRQAPGKERELVASIDSRGDSTYADSVKGRFTISRDNAKNTVYLQMNSLKPEDTAVYYCAADSWYSWFDSWGQGTQVTVSS”, the “polyreactivity (PSR sort gate)” value is “low polyreactivity”.

As to “QVQLVESGGGLVQAGGSLRLSCAASGSTFGYYTMGWYREAPGKERELVAAISWSGGSTYYADSVKGRFTISRDNAKNTVYLQMNSLKPEDTAVYYCAALGYTYKYYSYYWGQGTQVTVSS”, the “polyreactivity (PSR sort gate)” value is reported as “high polyreactivity”.

For “QVQLVESGGGLVQAGGSLRLSCAASGSTFGYYTMGWYRQAPGKERELVAALTWSGGSTYYADSVKGRFTISRDNAKNTVYLQMNSLKPEDTAVYYCAADDYWTPFGYWGQGSQVTVSS”, the “polyreactivity (PSR sort gate)” value was “low polyreactivity”.

Take “QVQLVESGGGLVQAGGSLRLSCAASGSTFGYYTMGWYRQAPGKERELVASISWSGASTHYADSVKGRFTISRDNAKNTVYLPMNRLKPEDTAVYYCAADSYPAYLGFVGFDYWGQGTQVTVSS”: the “polyreactivity (PSR sort gate)” value is “low polyreactivity”.

As to “QVQLVESGGGLVQAGGSLRLSCAASGSTFGYYTMGWYRQEPVKETELVAAISYSGGRTFYADSVKGRFTISRDNAKNSVYLQMKSLKTEDTEVYYCNKRYIPSYLSHLDYWGQGTQVTVSS”, the “polyreactivity (PSR sort gate)” value is given as “high polyreactivity”.

Regarding “QVQLVESGGGLVQAGGSLRLSCAASGSTFHKYTMGWYRQAPGKEREFVAAITRNGGTTSYADSVKGRFTISRDNAKNTVYLQMNSLKPEDTAVYYCAVKWRRQINYDYWGQGTQVTVSS”, the “polyreactivity (PSR sort gate)” value is “high polyreactivity”.

On to “QVQLVESGGGLVQAGGSLRLSCAASGSTFHLNAMGWYIQAPGKERELVAAISLSGGSTYYADSVKGRFTISRDHAKNTVYLQMNSLKPEYTAVYYCAAEQWYDNYLEYDYWGQGTEVTVSS”, for which the “polyreactivity (PSR sort gate)” value is recorded as “high polyreactivity”.

For “QVQLVESGGGLVQAGGSLRLSCAASGSTFHLNAMGWYRQAPGKERELVAAISWDGSSTSYADSVKGRFTISRDNAKNTVYLQMNSLKPEDTAVYYCAKRSSGVSVPVAYGGIKRYNSWGQGTQVTVSS”, the “polyreactivity (PSR sort gate)” value is given as “low polyreactivity”.

Take “QVQLVESGGGLVQAGGSLRLSCAASGSTFHNYAMGWYRQAPGKERELVAGISVRGGGTYYADSVKGRFTISRDNAKNNVYLQMNSLKPEDTAVYYCAKRSRYYYRYDYWGQGSQVTVSS”: the “polyreactivity (PSR sort gate)” value is on record as “high polyreactivity”.

For the sequence “QVQLVESGGGLVQAGGSLRLSCAASGSTFHPYAMGWYIQAPGKERELVAAITWRVGSTYYADSVKGRFTISRDNAKNTVYLQMNSLKPEDTAVFYCAVSYLSSLGRSRYDYWGQGTQVTVSS”, the “polyreactivity (PSR sort gate)” value was “low polyreactivity”.

With “QVQLVESGGGLVQAGGSLRLSCAASGSTFHRNAMGWYRQAPGKERELVAAITSGGSTNYADSEKGRFTISRDNAKNTVYLQMNRLKPEDTPVYYCAKDDRHYNRGWYDYWGQGTQVTVSS”, the “polyreactivity (PSR sort gate)” value is recorded as “low polyreactivity”.

For “QVQLVESGGGLVQAGGSLRLSCAASGSTFHSNAMGWYRQAPGKERELVAAISQGGGRTYYADSVKGRFTISRDNAKNTVYLQMNSLKPEDTAVYYCNRRTRGLIDGGMDYWGQGTQVTVSS”, the “polyreactivity (PSR sort gate)” value is on record as “low polyreactivity”.

On to “QVQLVESGGGLVQAGGSLRLSCAASGSTFHTNSMGGYRQAPGKETELVAAIRSGGGTNYADSVKGRFTISRDNAKNTVYLQMNSLKPEDTAVYYCNASPLPYSHRGDYWGQGTQVTVSS”, for which the “polyreactivity (PSR sort gate)” value is listed as “low polyreactivity”.

As to “QVQLVESGGGLVQAGGSLRLSCAASGSTFHVNAMGWYRQAPGKEREFGAVISSSAGRTYYADSVKGRFTISRDNAKNTVYLQMNSLKPEDTAVYYCAAGTFKPYWRKFEYWGQGTQVTVSS”, the “polyreactivity (PSR sort gate)” value is given as “high polyreactivity”.

In the case of “QVQLVESGGGLVQAGGSLRLSCAASGSTFHYYAMGWYRQAPGKERELVAAIRTSGGSTYYADSVKGRFTISRDNAKNTVYLQMNSLKPEDTAVYYCNRVLGYPYGVDYWGQGTQVTVSS”, the “polyreactivity (PSR sort gate)” value is “high polyreactivity”.

As to “QVQLVESGGGLVQAGGSLRLSCAASGSTFHYYAMGWYRQAPGKERELVAAISGSGSSTYYADSVKGRFTISRDNAKNTVYLQMNRLKPEDTAVYYCNARGHYPRARFGYKSGSDRYWGQGTQVTVSS”, the “polyreactivity (PSR sort gate)” value is on record as “high polyreactivity”.

“QVQLVESGGGLVQAGGSLRLSCAASGSTFHYYAMGWYRQAPGKERELVAAISKRGTSTYYADSVKGRFTISRDNAKNTVYLQMNSLKPEDTSVYYCNRYPIRYKHRGLDYWGHGTQVTVSS”: the “polyreactivity (PSR sort gate)” value was “high polyreactivity”.

On to “QVQLVESGGGLVQAGGSLRLSCAASGSTFHYYAMGWYRQAPGKERELVATITWRGGFTYYADSVKGRFTISRDNAKNTVYLQMNSLKPEDTAGYYCTDYSVRRYRDPRLYYWGQGTQVTVSS”, for which the “polyreactivity (PSR sort gate)” value is on record as “high polyreactivity”.

As for “QVQLVESGGGLVQAGGSLRLSCAASGSTFHYYARGWYRQAPGKERELVAAISQSGSGTYYADSVKGRFTISRDYAKNTVYLQMNSLKPEDTAVYYCAKDITGLSRYRRDYWGQGTQVTVSS”, the “polyreactivity (PSR sort gate)” value is listed as “low polyreactivity”.

For “QVQLVESGGGLVQAGGSLRLSCAASGSTFIFNAMGWYRQAPGKERELVAGISSGSPYYADSVKGRFTISRDNAKNTVYLQMNSLIPEDTAVYYCATKLRRWRFYAAYDYWGQGTQVTVSS”, the “polyreactivity (PSR sort gate)” value is reported as “high polyreactivity”.

“QVQLVESGGGLVQAGGSLRLSCAASGSTFIFYTMGWYRQAPGKERELVAAITSNGGSTYYADSVKGRFTISRDNAKNTVYFQMNSLKPEDTAVYYCARVDRWRRYRYIFSGYDYWGQGTQVTVSS”: the “polyreactivity (PSR sort gate)” value is given as “high polyreactivity”.

“QVQLVESGGGLVQAGGSLRLSCAASGSTFIIYAMGWYRQAPGKERELVAAISWSGGSTYYADSVKGRFTISRDNAKNTVYLQMNSLKPEDTAVYYCAVVYRTRWSDYDYWGQGTQVTVSS”: the “polyreactivity (PSR sort gate)” value is “high polyreactivity”.

With “QVQLVESGGGLVQAGGSLRLSCAASGSTFIKYTMGWYRQAPGKERELVAAISVRGGSTTYADSVKGRFTISRDNAKNTVYLQRNSLKPEDTAVYYCAKDHYYAGTWRYGYWGQGTQVTVSS”, the “polyreactivity (PSR sort gate)” value is “high polyreactivity”.

Take “QVQLVESGGGLVQAGGSLRLSCAASGSTFILYAMGCYIQAPGKERELVAAITASGGSTYADSVKGRFTISRDNSKNTVYLQMNSLKPEDSAVYYCAARRWSSKYRKYDYWGQGTQVTVSS”: the “polyreactivity (PSR sort gate)” value is “high polyreactivity”.

As for “QVQLVESGGGLVQAGGSLRLSCAASGSTFIPYTMGWYRQAPGKERELVAAISGRGGRTYYADSVKGRFTISRDNAKNTVYLQMNSLKPEDTAVYYCNRVLRYGPSAQYDYWGQGTQVTVSS”, the “polyreactivity (PSR sort gate)” value is given as “high polyreactivity”.

As to “QVQLVESGGGLVQAGGSLRLSCAASGSTFIRYAMGWYRQAPGKERELVAAITSGGRTNYADSVKGRFTISRDNAKNTVYLQMNSLKPEDTAVYYCAKLRWVYGRQTLMDYWGQGTQVTVSS”, the “polyreactivity (PSR sort gate)” value is “high polyreactivity”.

“QVQLVESGGGLVQAGGSLRLSCAASGSTFISNTMGWYRQAPGKERELVAGISSIGGITYYADSVKGRFTISRDNAKNTVYLQMNSLKPEDTAVYYCAKLDVISDDLDYWGQGTQVTVSS”: the “polyreactivity (PSR sort gate)” value is “low polyreactivity”.

In the case of “QVQLVESGGGLVQAGGSLRLSCAASGSTFITNAMGGYRQAPGKERELVATISRSGGRTYYADSVKGRFTISRDNAKNSVYLEMNSLNPEDTAVFYCAKRYGSKFEYWGLGTQVTVSS”, the “polyreactivity (PSR sort gate)” value is given as “high polyreactivity”.

For the sequence “QVQLVESGGGLVQAGGSLRLSCAASGSTFITNTMGWYRQAPGKERELVAAISKSGGSTYYADSVKGRFTISRDNAKNTVYLKMNSLKAEDTAVYYCAADIYVRDRGVKYDYWRQGTQVTVSS”, the “polyreactivity (PSR sort gate)” value is “low polyreactivity”.

In the case of “QVQLVESGGGLVQAGGSLRLSCAASGSTFIVYAMGWYRQAPGKERELVAAISLDGGSTYYADSVKGRFTISRDNAKNTVYLQMNSLKPEDTAVYYCNADYYANSITYDSWGQGTQVTVSS”, the “polyreactivity (PSR sort gate)” value is reported as “low polyreactivity”.

In the case of “QVQLVESGGGLVQAGGSLRLSCAASGSTFIVYAMGWYRQAPGKERELVAAITRGGSTNYADSVKGRFTISRDNAKNTVYLQMNSLKPEDTAVYYCAAPYAGWRDGGDYWGQGTQVTVSS”, the “polyreactivity (PSR sort gate)” value is “low polyreactivity”.

Consider “QVQLVESGGGLVQAGGSLRLSCAASGSTFIYYAMGWYRQAPGKEREFVAAISYRGGSTYYADSVKGRFTISRDNAKYTVYLQMNSLKPEDTAVYYCAASYRSWWETYLRGDYWGQGTQVTVSS”, for which the “polyreactivity (PSR sort gate)” value was “high polyreactivity”.

With “QVQLVESGGGLVQAGGSLRLSCAASGSTFIYYAMGWYRQAPGKERELVAGISIRGGSTYADSVKGRFTISRDNAKNTVYLQMNSVKPEDTAVYYCNAYKRIKANGYAIRYYYWGQGTQVTVSS”, the “polyreactivity (PSR sort gate)” value is “high polyreactivity”.

“QVQLVESGGGLVQAGGSLRLSCAASGSTFKAYAMGWYRQAPGKEREFVAAITRSGGRTYYADSVKGRFTISRDNAKNTVYLQMNSLKPEDTAVYYCAAYTWYAWVSDPTNEYWGQGTQVTVSS”: the “polyreactivity (PSR sort gate)” value was “low polyreactivity”.

“QVQLVESGGGLVQAGGSLRLSCAASGSTFKDNAMGRYIQAPGKERELVARITYRGGRTYADSVKGRFTISRDNAKNTVYFQMNSLKPEDTAVYYCAARPSLYGHNSRYDYWGQGTQVTVSS”: the “polyreactivity (PSR sort gate)” value was “low polyreactivity”.
